Results as given in patent US20100291074A1 (COLUMBIA UNIVERSITY IN THE CITY OF NEW YORK, published 2010).

Tests used:
monomeric Aβ40 = target: T1, monomeric Aβ40 (UniProt P05067 672-711); assay: SPR (BIAcore 3000), Aβ immobilized on a CM5 chip, CypD in the mobile phase, 25° C.; monomeric Aβ40
T1 construct: domain: Aβ(1-40); Immobilized on a CM5 chip by amine coupling for SPR; also called Aβ(1-40); amyloid beta
Procedure: (§1) Aβ(1-40) and Aβ(1-42), including monomeric and oligomeric Aβ, were used in the binding assay. The kinetic parameters evaluating binding affinity were analyzed as described in the Examples. […] The evaluating curves (red line) were overlaid with experimental data.
(§2) The monomeric and oligomeric Aβ were prepared as described and characterized by atomic force microscopy. SPR studies were performed on a BIAcore 3000 system (BIAcore AB, Uppsala, Sweden). Aβ (500 μg/ml) was immobilized using the standard amino coupling on a research-grade CM5 sensor chip. […] The binding curves were analyzed with the global fitting model using BIA evaluation version 4.0.1 (BIAcore AB).

monomeric Aβ42 = target: T2, monomeric Aβ42 (UniProt P05067 672-713); assay: SPR (BIAcore 3000), Aβ immobilized on a CM5 chip, CypD in the mobile phase, 25° C.; monomeric Aβ42
T2 construct: domain: Aβ(1-42); Immobilized on a CM5 chip by amine coupling for SPR; also called Aβ(1-42); amyloid beta
Procedure: as §1, §2

oligomeric Aβ40 = target: T3, oligomeric Aβ40 (UniProt P05067 672-711); assay: SPR (BIAcore 3000), Aβ immobilized on a CM5 chip, CypD in the mobile phase, 25° C.; oligomeric Aβ40
T3 construct: domain: Aβ(1-40); Oligomer; Immobilized on a CM5 chip for SPR; also called Aβ(1-40); amyloid beta
Procedure: as §1, §2

oligomeric Aβ42 = target: T4, oligomeric Aβ42 (UniProt P05067 672-713); assay: SPR (BIAcore 3000), Aβ immobilized on a CM5 chip, CypD in the mobile phase, 25° C.; oligomeric Aβ42
T4 construct: domain: Aβ(1-42); Oligomer; Immobilized on a CM5 chip for SPR; also called Aβ(1-42); amyloid beta
Procedure: as §1, §2

T3 sequence (P05067 672-711 limits assumed): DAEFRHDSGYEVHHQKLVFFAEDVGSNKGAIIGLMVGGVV
T1 sequence (P05067 672-711 limits assumed): as above
T4 sequence (P05067 672-713 limits assumed): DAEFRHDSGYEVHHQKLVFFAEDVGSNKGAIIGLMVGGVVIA
T2 sequence (P05067 672-713 limits assumed): as above

B1: purified recombinant human CypD protein (Cyclophilin D) (enzyme)
chain: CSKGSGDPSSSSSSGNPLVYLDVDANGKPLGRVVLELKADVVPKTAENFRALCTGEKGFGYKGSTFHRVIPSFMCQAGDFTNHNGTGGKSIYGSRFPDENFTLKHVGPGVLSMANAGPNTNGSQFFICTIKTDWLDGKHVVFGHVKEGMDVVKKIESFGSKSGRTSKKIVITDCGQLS
notes: also called human mitochondrial CypD protein; PPIF
Kd (monomeric Aβ40): 1700 nM | Kd (monomeric Aβ42): 164 nM | Kd (oligomeric Aβ40): 227 nM | Kd (oligomeric Aβ42): 4 nM
